Test results from US20090238821A1 (Eli Lilly, published 2009).

How the values were obtained:
Amyloid-beta 1-42 = target: T1, Amyloid-beta 1-42 (UniProt P05067 672-713); assay: BIAcore, essentially as in Example 15
T1 construct: domain: Amyloid-beta 1-42; Numbers 1-42 count on the Aβ peptide, not on the APP entry; also called Aβ42; Aβ1-42
Protocol: Antibody affinity (KD=Kd/Ka) was determined using a BIAcore biosensor 2000 and data analyzed with BIAevaluation (v. 3.1) software. A capture antibody (rabbit anti-mouse) was coupled via free amine groups to carboxyl groups on flow cell 2 of a biosensor chip (CM5) using N-ethyl-N-dimethylaminopropyl carbodiimide and N-hydroxysuccinimide (EDC/NHS). A non-specific rabbit IgG was coupled to flow cell 1 as a background control. Monoclonal antibodies were captured to yield 300 resonance units (RU). […] To regenerate the chip, bound anti-Aβ antibody was eluted from the chip using a wash with glycine-HCl (pH 2). A control injection containing no amyloid-beta served as a control for baseline subtraction.

[1] = target: T2, β-amyloid peptide (1-42) conjugated to BSA (UniProt P05067 672-713, C-terminal Cys43 coupled to maleimide-activated bovine serum albumin); assay: competitive ELISA on Aβ1-42-BSA, competitor of biotinylated Mu266 (0.3 µg/ml), first set
T2 construct: domain: Aβ1-42; Coated on ELISA plates at 10 µg/mL; the carrier BSA is not written as a chain; also called Aβ1-42-BSA conjugate; Aβ1-42-Cys-BSA conjugate
Protocol: (§1) The Aβ₁₋₄₂-BSA conjugate was prepared by dissolving 7.5 mg of Aβ₁₋₄₂-Cys₄₃(C-terminal cysteine Aβ₁₋₄₂, AnaSpec) in 500 μL of dimethylsulfoxide, and then immediately adding 1,500 μL of distilled water. Two (2) milligrams of maleimide-activated bovine serum albumin (Pierce) was dissolved in 200 μL of distilled water. The two solutions were combined, thoroughly mixed, and allowed to stand at room temperature for two (2) hours. A gel chromatography column was used to separate unreacted peptide from Aβ₁₋₄₂-Cys-BSA conjugate.
(§2) After washing the wells with phosphate buffered saline (PBS) containing 0.1% Tween 20 (Washing Buffer) using an ELISA plate washer, the wells were blocked by adding 300 μL of SuperBlock reagent (Pierce) per well. After 30 minutes of blocking, the wells were washed Washing Buffer and excess liquid was removed.
(§3) As a background control, 100 μl of ELISA Buffer was added. The ELISA plate was incubated at room temperature for 90 min. After washing the wells with Washing Buffer, 100 μl of 1 μg/ml HRP-conjugated streptavidin (Cat # 21124, Pierce) was added to each well. […] Absorbance was read at 415 nm. The absorbances were plotted against the log of the competitor concentration, curves were fit to the data points (using Prism) and the IC50 was determined for each antibody using methods well-known in the art.

[2] = target: T2, β-amyloid peptide (1-42) conjugated to …; assay: competitive ELISA on Aβ1-42-BSA, competitor of biotinylated Mu266 (0.3 µg/ml), second set
Protocol: as §1, §2, §3

Kd (Amyloid-beta 1-42): 4 pM
IC50 [1]: 7.5 µg/mL
IC50 [2]: 4 µg/mL
B1: humanized 266 antibody (antibody, human IgG1, kappa, V domains shown)
VH: EVQLVESGGGLVQPGGSLRLSCAASGFTFSRYSMSWVRQAPGKGLELVAQINSVGNSTYYPDTVKGRFTISRDNAKNTLYLQMNSLRAEDTAVYYCASGDYWGQGTLVTVSS
VL: DVVMTQSPLSLPVTLGQPASISCRSSQSLIYSDGNAYLHWFLQKPGQSPRLLIYKVSNRFSGVPDRFSGSGSGTDFTLKISRVEAEDVGVYYCSQSTHVPWTFGQGTKVEIKR
notes: Mature antibody expressed from pVk-Hu266 and pVg1-Hu266 in Sp2/0 cells (clone 1D9), purified on protein A; human kappa and gamma 1 constant regions; also called Hu266
